According to patent publication US9944688B2, “Non-peptidyl polymer-insulin multimer and method for producing the same” (HANMI SCIENCE CO., LTD., priority 2011, dated 2018):

Legend:
[1] = Measurement of hydrodynamic volume by size exclusion chromatography; type: physicochemical; conditions: for Hydrodynamic volume: SEC Superdex 200 10/300 GL, regression line from standard proteins; for Hydrodynamic volume, times larger than monomer: hexamer versus monomer
Protocol: PEG-insulin conjugates in 20 mM HEPES buffer (pH 8.2) were mixed with a cobalt chloride solution to a ratio of cobalt to hexamer of 3:1. To convert divalent cobalt ions into trivalent cobalt ions, hydrogen peroxide corresponding to twice of the total divalent cobalt ions was added, and left at room temperature for 2 h. Thereafter, cobalt PEG-insulin hexamers were isolated by SEC (size exclusion chromatography).
Column: Superdex 200 16/60 prep grade (GE Healthcare)
Buffer: 20 mM HEPES pH 8.2+0.2 M NaCl
Hydrodynamic volume of the PEG-insulin conjugate or the cobalt PEG-insulin hexamer was measured according to the conditions described in Example 4, except that Superdex 200 10/300 GL was used as a column. The regression line was calculated from the elution volume of standard protein. Partition coefficient (Kav) is defined as follows. Kav=(Ve−V0)/(Vt−V0)
Ve represents the elution volume, V0 represents the void volume determined by Blue dextran, and Vt represents the bed volume.

[2] = Comparison of molecular size by size exclusion chromatography in DPBS; type: physicochemical; conditions: SEC, DPBS buffer
Protocol: Size exclusion chromatography was performed to indirectly predict the molecular size of subcutaneously injected insulin formulation and its size change according to natural dilution (Havelund et al., 2004). The representative commercial long-acting insulin formulations, Levemir and Lantus, were used as a control group to examine the relative molecular size of the cobalt PEG-insulin hexamer. Chromatography was performed according to the conditions described in Example 4, except that DPBS was used as a buffer solution to create subcutaneous environment.

[3] = after subcutaneous injection; time for half of the drug to pass the capillary wall; cited from earlier work
[4] = tested on: murine fibroblast 3T3-L1 differentiated into adipocyte; experiment: In vitro efficacy test: residual sugar in media of differentiated 3T3-L1 adipocytes; type: cell-based; conditions: for EC50: differentiated 3T3-L1 adipocytes, 37° C. for 24 h, residual sugar by D-Glucose assay kit
Protocol: In order to differentiate murine fibroblast 3T3-L1 into adipocyte, the cell was inoculated in a 48-well plate containing a 10% FBS/DMEM media containing dexamethasone, IBMX, and insulin at a cell density of 1.0×10^5 per well. The differentiated cells were washed with DPBS three times, and cultured in a serum-free DMEM for 4 h. […] After cultivation at 37° C. for 24 h, the residual sugar concentration in the media was measured using a D-Glucose assay kit (Megazyme), and EC50 values were calculated and shown in Table 1.

Cobalt PEG (20k)-insulin hexamer: hexamer of PEG (20k)-insulin conjugates complexed with trivalent cobalt ions
Hydrodynamic volume [1]: 1,600 kDa | Hydrodynamic volume, times larger than monomer [1]: approximately 10 times | Dissociation coefficient (Kav) [2]: 0.01 | Elution time [2]: 20.12 min

insulin detemir
Subcutaneous half-life, times longer than native insulin hexamer [3]: 4 times

PEG (20k)-insulin: human native insulin mono-PEGylated with 20 k mPEG-aldehyde at the amino terminus of the B chain
EC50 [4]: 13.6 ± 0.71 nM

PEG (5k)-insulin: human native insulin mono-PEGylated with 5 k mPEG-aldehyde at the amino terminus of the B chain
EC50 [4]: 9.48 ± 2.77 nM | Relative activity ([4]; relative to human native insulin (100)): 60% | Hydrodynamic volume [1]: 60 kDa

Cobalt PEG (5k)-insulin hexamer: hexamer of PEG (5k)-insulin conjugates complexed with trivalent cobalt ions
Hydrodynamic volume [1]: 300 kDa | Hydrodynamic volume, times larger than monomer [1]: approximately 5 times | Dissociation coefficient (Kav) [2]: 0.20 | Elution time [2]: 27.63 min
